Results as given in article PMC4150794, “Homodimerization of RBPMS2 through a new RRM-interaction motif is necessary to control smooth muscle plasticity” (Nucleic Acids Research, 2014).

Molecular target: the molecule itself
Experiment: SEC-MALS; Superdex 75 10/300, 20 mM Tris-HCl pH 8, 300 mM NaCl; loaded at 2 mg/ml (RBPMS2-Nter) or 4 mg/ml (RBPMS2-Nter-L49E); monomer to dimer

B1: RBPMS2-Nter (human RBPMS2 residues 27-117, RRM domain) (domain or fragment)
chain: not shown
notes: 15N- or 15N/13C-labelled for NMR; also called pET22-RBPMS2-Nter; RRM domain of RBPMS2; source: E. coli BL231DE3 (so in the source), purified (His Trap FF)
  stoichiometry N: 2
